# Results published in article PMC6557901, “Rif1 S-acylation mediates DNA double-strand break repair at the inner nuclear membrane”.
# T1: Rif1 NTD (100-1322) wild-type (Saccharomyces cerevisiae, UniProt P29539 100-1322)
# T1 sequence: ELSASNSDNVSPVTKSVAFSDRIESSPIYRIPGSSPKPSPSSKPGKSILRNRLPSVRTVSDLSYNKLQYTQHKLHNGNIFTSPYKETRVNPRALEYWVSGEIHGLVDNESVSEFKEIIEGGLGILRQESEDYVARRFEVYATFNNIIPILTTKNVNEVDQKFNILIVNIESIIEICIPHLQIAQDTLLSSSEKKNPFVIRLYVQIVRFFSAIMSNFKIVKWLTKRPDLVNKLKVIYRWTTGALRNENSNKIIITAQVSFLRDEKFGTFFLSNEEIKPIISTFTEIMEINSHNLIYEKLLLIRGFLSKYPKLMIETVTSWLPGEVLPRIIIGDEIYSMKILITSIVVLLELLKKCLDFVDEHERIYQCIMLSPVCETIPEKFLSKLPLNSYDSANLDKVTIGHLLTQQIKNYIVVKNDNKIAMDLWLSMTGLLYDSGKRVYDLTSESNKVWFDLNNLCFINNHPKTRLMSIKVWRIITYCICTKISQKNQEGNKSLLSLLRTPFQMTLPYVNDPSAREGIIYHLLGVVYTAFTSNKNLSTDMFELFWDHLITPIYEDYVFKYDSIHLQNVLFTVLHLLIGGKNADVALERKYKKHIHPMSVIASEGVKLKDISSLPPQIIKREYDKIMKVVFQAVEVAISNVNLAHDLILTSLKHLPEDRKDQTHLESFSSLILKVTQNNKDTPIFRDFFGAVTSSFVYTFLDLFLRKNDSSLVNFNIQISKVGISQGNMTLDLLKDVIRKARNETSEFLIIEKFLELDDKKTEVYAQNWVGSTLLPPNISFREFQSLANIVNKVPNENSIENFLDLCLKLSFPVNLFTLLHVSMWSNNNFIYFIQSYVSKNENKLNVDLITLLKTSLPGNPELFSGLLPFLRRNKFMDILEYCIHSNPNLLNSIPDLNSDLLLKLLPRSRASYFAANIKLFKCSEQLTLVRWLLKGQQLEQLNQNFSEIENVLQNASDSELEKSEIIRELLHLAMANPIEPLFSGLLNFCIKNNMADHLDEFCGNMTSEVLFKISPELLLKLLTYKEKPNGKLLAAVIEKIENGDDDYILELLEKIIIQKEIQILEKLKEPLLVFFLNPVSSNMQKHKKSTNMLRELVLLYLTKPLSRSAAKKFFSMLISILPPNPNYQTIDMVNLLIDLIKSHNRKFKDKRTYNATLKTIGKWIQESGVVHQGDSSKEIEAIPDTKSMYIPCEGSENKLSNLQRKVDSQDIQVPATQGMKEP
# B1: 30 bp dsDNA (EMSA1/EMSA2) (dsDNA)
# DNA 1: TAGCAAGGCACTGGTAGAATTCGGCAGCGT
# DNA 2: ACGCTGCCGAATTCTACCAGTGCCTTGCTA
# Molecular target: T1, Rif1 NTD (100-1322) wild-type
# Experiment: EMSA; protein 10-160 nM, DNA 1 nM; 20 mM Tris-HCl pH 8.0, 100 mM NaCl, 2.5 mM MgCl2, 10 mM CaCl2, 0.1 mg/ml BSA, 1 mM TCEP, 30 min at 20 °C; 1.2% agarose gel, 0.5x TBE, 4 °C
# Settings: protein: recombinant; tags: N-terminal Strep(II); label: 5'-32P on EMSA1; blunt
binder,measurement,value
B1,binding result,binds
